From patent US6410226 come the findings set out here.

B1: hsREC2 (human REC2, ATP-dependent homologous pairing protein) (protein)
chain: MGSKKLKRVGLSQELCDRLSRHQILTCQDFLCLSPLELMKVTGLSYRGVHELLCMVSRACAPKMQTAYGIKAQRSADFSPAFLSTTLSALDEALHGGVACGSLTEITGPPGCGKTQFCIMMSILATLPTNMGGLEGAVVYIDTESAFSAERLVEIAESRFPRYFNTEEKLLLTSSKVHLYRELTCDEVLQRIESLEEEIISKGIKLVILDSVASVVRKEFDAQLQGNLKERNKFLAREASSLKYLAEEFSIPVILTNQITTHLSGALASQADLVSPADDLSLSEGTSGSSCVIAALGNTWSHSVNTRLILQYLDSERRQILIAKSPLAPFTSFVYTIKEEGLVLQAYGNS
For the protein B1, the “Hill coefficient of ATP hydrolysis (ATPase activity) at ATP concentrations of <100 µM” value is reported as “the Hill coefficient (1.8)”.
